Results published in article PMC12319226 (Frontiers in Bioinformatics, 2025).

What was measured:
Test in all cases: BLI
Settings in all cases: both partners purified
[1] = molecular target: T1, fHbp m000019 (Neisseria meningitidis, fHbp v1.1 …, point mutant)
T1 construct: also called Round 1 best mutant
T1 chain: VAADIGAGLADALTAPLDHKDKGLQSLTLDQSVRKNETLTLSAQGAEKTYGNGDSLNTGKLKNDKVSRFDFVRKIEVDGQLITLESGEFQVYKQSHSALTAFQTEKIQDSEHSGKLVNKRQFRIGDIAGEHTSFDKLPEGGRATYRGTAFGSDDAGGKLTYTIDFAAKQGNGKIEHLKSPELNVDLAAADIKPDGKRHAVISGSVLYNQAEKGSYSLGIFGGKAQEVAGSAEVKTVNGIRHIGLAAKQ

[2] = molecular target: T2, fHbp mutant 0012 (Neisseria meningitidis, fHbp v1.1 mutant, point mutant)
T2 chain: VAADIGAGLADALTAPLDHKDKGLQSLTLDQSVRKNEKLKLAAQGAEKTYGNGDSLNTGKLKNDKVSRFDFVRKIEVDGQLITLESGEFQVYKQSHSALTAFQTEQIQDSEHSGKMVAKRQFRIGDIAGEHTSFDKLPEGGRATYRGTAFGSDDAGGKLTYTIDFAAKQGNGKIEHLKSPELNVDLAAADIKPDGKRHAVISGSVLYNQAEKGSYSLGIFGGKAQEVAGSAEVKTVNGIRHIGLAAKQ

[3] = molecular target: T3, fHbp mutant 0014 (Neisseria meningitidis, fHbp v1.1 mutant, point mutant)
T3 chain: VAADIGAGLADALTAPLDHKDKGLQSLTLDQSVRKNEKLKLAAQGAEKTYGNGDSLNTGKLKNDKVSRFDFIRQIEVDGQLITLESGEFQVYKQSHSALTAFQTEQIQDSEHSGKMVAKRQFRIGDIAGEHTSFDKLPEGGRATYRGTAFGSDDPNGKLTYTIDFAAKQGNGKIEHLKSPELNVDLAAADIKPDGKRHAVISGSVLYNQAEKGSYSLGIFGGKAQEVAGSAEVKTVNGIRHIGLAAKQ

[4] = molecular target: T4, factor H binding protein variant 1.1 (Neisseria meningitidis serogroup B …, UniProt Q9JXV4)
T4 construct: also called fHbp v1.1; v1.1 Control (0001)

[5] = molecular target: T5, fHbp mutant 0017 (Neisseria meningitidis, fHbp v1.1 mutant, point mutant)
T5 chain: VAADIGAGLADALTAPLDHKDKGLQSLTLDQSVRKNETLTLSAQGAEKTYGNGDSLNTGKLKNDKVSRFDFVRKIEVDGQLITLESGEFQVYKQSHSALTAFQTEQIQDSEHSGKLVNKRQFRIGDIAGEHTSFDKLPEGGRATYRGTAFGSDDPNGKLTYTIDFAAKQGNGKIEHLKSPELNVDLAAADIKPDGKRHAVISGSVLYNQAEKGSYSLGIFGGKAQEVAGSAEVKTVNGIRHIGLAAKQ

[6] = molecular target: T6, fHbp mutant 0016 (Neisseria meningitidis, fHbp v1.1 mutant, point mutant)
T6 chain: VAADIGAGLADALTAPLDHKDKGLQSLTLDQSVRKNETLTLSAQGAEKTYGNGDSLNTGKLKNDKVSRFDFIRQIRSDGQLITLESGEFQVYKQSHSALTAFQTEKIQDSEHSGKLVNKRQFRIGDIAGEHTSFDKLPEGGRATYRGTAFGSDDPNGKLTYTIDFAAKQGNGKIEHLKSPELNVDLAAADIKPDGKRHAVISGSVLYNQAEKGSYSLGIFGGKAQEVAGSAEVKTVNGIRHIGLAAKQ

[7] = molecular target: T7, fHbp m000019 (Neisseria meningitidis, fHbp v1.1 …, point mutant)
T7 chain: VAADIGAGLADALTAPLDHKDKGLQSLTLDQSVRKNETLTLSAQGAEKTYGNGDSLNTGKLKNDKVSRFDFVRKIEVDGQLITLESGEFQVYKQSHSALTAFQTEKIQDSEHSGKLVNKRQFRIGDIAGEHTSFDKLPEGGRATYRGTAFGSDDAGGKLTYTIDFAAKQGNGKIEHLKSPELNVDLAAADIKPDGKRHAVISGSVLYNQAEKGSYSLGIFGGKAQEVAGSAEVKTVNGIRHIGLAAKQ

[8] = molecular target: T8, fHbp mutant 0018 (Neisseria meningitidis, fHbp v1.1 mutant, point mutant)
T8 chain: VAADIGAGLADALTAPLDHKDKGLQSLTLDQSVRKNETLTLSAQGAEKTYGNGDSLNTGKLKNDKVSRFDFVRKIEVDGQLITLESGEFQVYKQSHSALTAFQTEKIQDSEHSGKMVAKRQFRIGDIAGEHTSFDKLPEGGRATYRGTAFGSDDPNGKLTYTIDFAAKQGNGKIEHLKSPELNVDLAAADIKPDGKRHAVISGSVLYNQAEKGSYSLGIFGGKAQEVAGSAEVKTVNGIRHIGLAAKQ

[9] = molecular target: T9, fHbp mutant 0015 (Neisseria meningitidis, fHbp v1.1 mutant, point mutant)
T9 chain: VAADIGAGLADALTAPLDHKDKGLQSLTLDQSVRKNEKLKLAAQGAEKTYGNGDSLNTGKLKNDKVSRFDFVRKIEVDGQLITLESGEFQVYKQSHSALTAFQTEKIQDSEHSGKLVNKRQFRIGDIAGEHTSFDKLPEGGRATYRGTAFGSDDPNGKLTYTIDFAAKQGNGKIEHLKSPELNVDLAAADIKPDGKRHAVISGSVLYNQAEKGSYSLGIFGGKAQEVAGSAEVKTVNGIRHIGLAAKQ

[10] = molecular target: T10, fHbp m002416 (Neisseria meningitidis, fHbp v3.28/v1.1 …, point mutant)
T10 construct: also called fHbp 2,416; Round 2 best mutant
T10 chain: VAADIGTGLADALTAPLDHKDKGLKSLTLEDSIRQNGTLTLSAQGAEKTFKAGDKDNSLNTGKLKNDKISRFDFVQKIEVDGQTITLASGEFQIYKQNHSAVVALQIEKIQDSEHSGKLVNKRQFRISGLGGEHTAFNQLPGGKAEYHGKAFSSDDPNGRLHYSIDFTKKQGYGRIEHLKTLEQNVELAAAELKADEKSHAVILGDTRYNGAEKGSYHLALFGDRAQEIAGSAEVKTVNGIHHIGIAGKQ

[11] = molecular target: T11, Neisseria meningitidis factor H binding protein variant 1.1 (Neisseria meningitidis, UniProt Q9JXV4)
T11 construct: also called fHbp v1.1; fHbp variant 1.1

[12] = molecular target: T12, Neisseria meningitidis factor H binding protein variant 3.28 (Neisseria meningitidis, fHbp variant …, strain)
T12 construct: also called fHbp v3.28; fHbp variant 3.28
T12 chain: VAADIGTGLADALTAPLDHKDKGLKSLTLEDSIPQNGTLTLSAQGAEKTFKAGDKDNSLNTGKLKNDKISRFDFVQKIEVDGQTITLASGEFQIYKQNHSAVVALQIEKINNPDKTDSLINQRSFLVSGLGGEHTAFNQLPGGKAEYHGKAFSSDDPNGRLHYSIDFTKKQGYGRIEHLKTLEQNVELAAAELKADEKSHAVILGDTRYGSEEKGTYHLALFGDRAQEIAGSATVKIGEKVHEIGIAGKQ

[13] = molecular target: T13, factor H binding protein variant 3.28 (Neisseria meningitidis, fHbp variant …)
T13 construct: also called fHbp v3.28; v3.28 Control (0002)
T13 chain: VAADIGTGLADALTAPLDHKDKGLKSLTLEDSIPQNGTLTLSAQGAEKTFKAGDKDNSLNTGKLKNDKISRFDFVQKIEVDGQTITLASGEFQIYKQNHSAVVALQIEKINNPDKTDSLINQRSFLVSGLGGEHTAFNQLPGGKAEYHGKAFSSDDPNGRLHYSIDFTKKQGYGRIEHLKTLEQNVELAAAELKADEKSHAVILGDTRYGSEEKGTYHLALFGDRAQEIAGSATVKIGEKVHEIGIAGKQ

[14] = molecular target: T13, factor H binding protein variant 3.28

B1: mouse mAb 12C1 (antibody, V domains shown)
VH: QVQLQESGPELVKPGASVKISCKASGYSFSDYNMSWVKQSNGKSLEWIGIIDPKYGTINYNQKFKGKATLTVDQASSTAYMQLNSLTSEDSAVYYCVRDYYGSSYFDYWGQGTTLTVSS
VL: DIVLTQSPSSIYASLGERVTLTCKASQDIHNYLNWFQQKPGKSPKTLIYRANRLVDGVPSRFSGGGSGQDYSLTISSLEFEDIGIYYCLQYDEFPPTFGGGTRLEIK
notes: also called mouse 12C1 mAb; source: Expi293, transient transfection, purified (MabSelect SuRe, SEC)
Question: For B1, which Kd [1] is on record?
Answer: 37 pM

B2: mAb 12C1 (mouse) (antibody, V domains shown)
VH: QVQLQESGPELVKPGASVKISCKASGYSFSDYNMSWVKQSNGKSLEWIGIIDPKYGTINYNQKFKGKATLTVDQASSTAYMQLNSLTSEDSAVYYCVRDYYGSSYFDYWGQGTTLTVSS
VL: DIVLTQSPSSIYASLGERVTLTCKASQDIHNYLNWFQQKPGKSPKTLIYRANRLVDGVPSRFSGGGSGQDYSLTISSLEFEDIGIYYCLQYDEFPPTFGGGTRLEIK
notes: source: Expi293, purified (MabSelect SuRe, SEC); copies: 2 + 2
Question: What does the source list for B2?
Answer: Kd [2]: < 1 pM; koff [2]: < 1e-07 s⁻¹; kon [2]: 599000 ± 21400 M⁻¹ s⁻¹; Kd [3]: < 1 pM; koff [3]: < 1e-07 s⁻¹; kon [3]: 809000 ± 12500 M⁻¹ s⁻¹; Kd [4]: < 1 pM; koff [4]: < 1e-07 s⁻¹; kon [4]: 796000 ± 15600 M⁻¹ s⁻¹; Kd [5]: < 1 pM; koff [5]: < 1e-07 s⁻¹; kon [5]: 359000 ± 10900 M⁻¹ s⁻¹; Kd [6]: < 1 pM; koff [6]: < 1e-07 s⁻¹; kon [6]: 101000 ± 20700 M⁻¹ s⁻¹; koff [7]: 2.2e-05 s⁻¹; kon [7]: 585000 ± 6100 M⁻¹ s⁻¹; Kd [8]: < 1 pM; koff [8]: < 1e-07 s⁻¹; kon [8]: 397000 ± 13200 M⁻¹ s⁻¹; Kd [9]: < 1 pM; koff [9]: < 1e-07 s⁻¹; kon [9]: 386000 ± 44100 M⁻¹ s⁻¹

B3: chimeric antibody h12C1 (antibody, V domains shown)
VH: QVQLQESGPELVKPGASVKISCKASGYSFSDYNMSWVKQSNGKSLEWIGIIDPKYGTINYNQKFKGKATLTVDQASSTAYMQLNSLTSEDSAVYYCVRDYYGSSYFDYWGQGTTLTVSS
VL: DIVLTQSPSSIYASLGERVTLTCKASQDIHNYLNWFQQKPGKSPKTLIYRANRLVDGVPSRFSGGGSGQDYSLTISSLEFEDIGIYYCLQYDEFPPTFGGGTRLEIK
notes: also called humanized 12C1 mAb; source: Expi293, transient transfection, purified (MabSelect SuRe, SEC)
Question: B3 was tested. Which Kd [10] did it give?
Answer: 293 pM

Question: What about the Kd [11] of the same binder?
Answer: 100 to 800 pM

B4: mouse mAb JAR5 (antibody, V domains shown)
VH: QVQMQQPGAELVKPGASVKLSCKASGYTFISYWMHWVKQRPGRGLEWIGRIAPDTGIIYYNEKFKNKATLTVDTPSSTAYMQLNSLTSEDSAVYYCARYLKYDGSTYRFDYWGQGTTLTVSS
VL: DIVMTQAAPSVPVTPGESVSISCRSSKSLLHSNGNTYLFWFLQRPGQSPQLLIYRMSNLASGVPDRFSGSGSGTSFTLRISRVEAEDVGVYYCMQHLEYPYTFGGGTKLEIK
notes: also called mouse JAR5 mAb; source: Expi293, transient transfection, purified (MabSelect SuRe, SEC)
Question: With B4 as the binder, how does the Kd [1] read?
Answer: 254 pM

B5: chimeric antibody hJAR5 (antibody, V domains shown)
VH: QVQMQQPGAELVKPGASVKLSCKASGYTFISYWMHWVKQRPGRGLEWIGRIAPDTGIIYYNEKFKNKATLTVDTPSSTAYMQLNSLTSEDSAVYYCARYLKYDGSTYRFDYWGQGTTLTVSS
VL: DIVMTQAAPSVPVTPGESVSISCRSSKSLLHSNGNTYLFWFLQRPGQSPQLLIYRMSNLASGVPDRFSGSGSGTSFTLRISRVEAEDVGVYYCMQHLEYPYTFGGGTKLEIK
Question: Which Kd [10] does the source give for B5 here?
Answer: 631 pM

B6: mAb JAR5 (mouse) (antibody, V domains shown)
VH: QVQMQQPGAELVKPGASVKLSCKASGYTFISYWMHWVKQRPGRGLEWIGRIAPDTGIIYYNEKFKNKATLTVDTPSSTAYMQLNSLTSEDSAVYYCARYLKYDGSTYRFDYWGQGTTLTVSS
VL: DIVMTQAAPSVPVTPGESVSISCRSSKSLLHSNGNTYLFWFLQRPGQSPQLLIYRMSNLASGVPDRFSGSGSGTSFTLRISRVEAEDVGVYYCMQHLEYPYTFGGGTKLEIK
notes: as for B2
Question: With B6 as the binder, how does the Kd [2] read?
Answer: 418 pM

Question: What about the Kd [3] of the same binder?
Answer: 211 pM

Question: And the Kd [5]?
Answer: 29.7 pM

Question: And the Kd [8]?
Answer: 404 pM

Question: What about the Kd [9] of the same binder?
Answer: 209 pM

B7: human mAb 1A12 (antibody, V domains shown)
VH: EVQLVQSGAELKKPGESLKISCKASGYTFTNYWVVWVRQMPGEGLEWMGSIHPRDSDARYSLSFEGRVTFSVDKSTTTAYLQWSSLKVSDSAIYYCARLSQVSGWSPWVGPWGQGTLVTVSS
VL: DIVMTQSPSSLSASVGDRVTITCRASQSISVSLNWYQQKPGKAPKVLIYAASRLQSGIPSRFSGSGSGSHFTLTISSLQPEDFATYYCQETYSDLMYTFGQGTKVEIK
notes: source: Expi293, transient transfection, purified (MabSelect SuRe, SEC)
Question: For B7, which Kd [12] is on record?
Answer: 7000 to 20000 pM

B8: mAb 1A12 (human) (antibody, V domains shown)
VH: EVQLVQSGAELKKPGESLKISCKASGYTFTNYWVVWVRQMPGEGLEWMGSIHPRDSDARYSLSFEGRVTFSVDKSTTTAYLQWSSLKVSDSAIYYCARLSQVSGWSPWVGPWGQGTLVTVSS
VL: DIVMTQSPSSLSASVGDRVTITCRASQSISVSLNWYQQKPGKAPKVLIYAASRLQSGIPSRFSGSGSGSHFTLTISSLQPEDFATYYCQETYSDLMYTFGQGTKVEIK
notes: as for B2
Question: With B8 as the binder, how does the Kd [4] read?
Answer: < 1 pM

Question: And the Kd [13]?
Answer: 65900 pM

Question: And the Kd [14]?
Answer: 20400 pM
